Assay results: patent US20120237528A1 (Janssen / Centocor, published 2012)
Read-outs that look alike come from different tables or passages of the source.

Key:
[1] = target: T1, endogenous human tissue factor on MDA-MB-231 breast cancer cells (human, UniProt P13726 33-295); test: cell-based or functional assay
[2] = target: T2, Cynomolgous monkey (cyno) TF-ECD with His Tag (cynomolgus monkey, UniProt P13726 33-251 (human entry)); test: TF-ECD binding ELISA, chemiluminescent
T2 construct: also called cyno antigen
T2 chain: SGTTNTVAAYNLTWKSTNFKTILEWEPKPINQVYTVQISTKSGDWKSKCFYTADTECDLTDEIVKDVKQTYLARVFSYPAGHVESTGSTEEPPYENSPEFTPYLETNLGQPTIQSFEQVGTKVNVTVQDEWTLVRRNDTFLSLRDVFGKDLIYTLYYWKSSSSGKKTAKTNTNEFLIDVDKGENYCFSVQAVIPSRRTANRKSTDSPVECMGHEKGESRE

[3] = target: T3, recombinant extracellular domain (ECD) of human TF, amino acid 1-219 of the mature chain, C-terminal His6-tag (human, UniProt P13726 33-251); test: TF-ECD binding ELISA, chemiluminescent
T3 construct: expressed in a mammalian system; used for ELISA and Biacore; biotinylated by NHS-ester for the Fab ELISA; also called His6-TF-ECD1-219; HumanTF1-219

[4] = target: T1, endogenous human tissue factor on …; test: cell-based or functional assay; remark: listed apart in the source
[5] = target: T1, endogenous human tissue factor on …; test: cell-based or functional assay; remark: listed apart in the source
[6] = target: T2, Cynomolgous monkey (cyno) TF-ECD with …; test: Biacore
[7] = target: Innovin, lyophilized recombinant human tissue factor combined with phospholipids (human, UniProt P13726 33-295, limits assumed); test: cell-based or functional assay
[8] = target: T3, recombinant extracellular domain (ECD) …; test: Biacore
[9] = target: T3, recombinant extracellular domain (ECD) …; test: Biacore; remark: listed apart in the source
[10] = target: T1, endogenous human tissue factor on …; test: FACS on MDA-MB-231 cells
Protocol: This assay is used to detect the direct binding of antibody to endogenouse human TF expressed in breast cancer cells. Prepare four point titrations of the test mAbs in FACS buffer (1% FBS in PBS) in duplicate. Start a titration at 1,000 ng/ml with 1:4 dilutions. […] Unstained cells and secondary antibody, Cy-5 conjugated Goat anti-Human IgG Fc antibody in FACS buffer 1:200, is used as controls and prepared immediately before use.
Using standard tissue culture technique, rinse adherent MDA-MB-231 cells in culture flask with once with PBS (w/o Ca+2/Mg+2). Lift cells with Versene and count the cells and seed 200,000 cells per well in a polystyrene V-bottom plate. FACS Analysis Protocol: Tissue Factor Binding. Pellet the cells in a Allegra X-15R centrifuge at 450×g for 3 minutes at 4° C., resuspend in FACS Buffer (2% FBS in PBS) and plate 200,000 cells per well in 200 uL. Pellet cells at 450×g for 3 minutes at 4° C. Discard supernatants and add 100 uL/well test or control mAbs to designated wells and incubate on ice or at 4° C. for 1 hour (+/−10 minutes). Pellet cells at 450×g for 3 minutes at 4° C. Discard supernatants and wash cells once in FACS buffer. Resuspend cells in 200 uL/well FACS buffer and pellet cells at 450×g for 3 minutes at 4° C. Discard supernatants and add 100 uL/well secondary antibody to designated wells (triterate), and incubate on ice for 1 hour (+/−10 minutes). Pellet cells at 450×g for 3 minutes at 4° C. Discard supernatants and wash cells 2 times in FACS buffer before resuspending the cells in 200 uL/well FACS Buffer (triterate). Pellet cells at 450×g for 3 minutes at 4° C. Discard supernatant and resuspend cells in 100 uL/well CytoFix Buffer. Analyze reactions by flow cytometry (BD FACSArray). The FlowJo Software is used for FACS data analysis by gating the main population of cells in the unstained control well and applying the gate to the whole data set. The data is exported as a table of the geometric mean fluorescence intensity (MFI) in the red channel for the applied gate.

Binder	IL-8 Induction, Ave % inhibition [1] [%]	EC50 [2] [µg/mL]	EC50 [3] [µg/mL]	IC50 (ug/ml), IL-8 induction assay [4] [µg/mL]	% IL-8 Inhibition [5] [%]	Kd [6] [nM]	T½ Max (seconds), coagulation of human plasma [7] [s]	Kd [8] [nM]	Kd [9] [nM]	koff [9] [s⁻¹]	kon [9] [M⁻¹ s⁻¹]	Whole Cell Binding, Ave % [10] [%]
M59 (antibody, V domains shown, FR4 is its own entry; also called H22/L3) VH: EVQLVQSGAEVKKPGESLRISCKGSGYTFITYWIEWVRQMPGKGLEWMGDILPGSGSTNYSPSFQGHVTISADKSISTAYLQWSSLKASDTAMYYCARSGYYGNSGFAYWGQGTLVTVSS VL: DIVMTQTPLSLPVTPGEPASISCKSSQSLLSSGNQKNYLTWYLQKPGQSPQLLIYWASTRESGVPDRFSGSGSGTDFTLKISRVEAEDVGVYYCQNDYTYPLTFGQGTKLEIK	103	0.0187	0.0088	0.382	83.8	1.28	169					
M9 (antibody, V domains shown, complete MAb; FR4 is its own entry; also called H15/L2) VH: EVQLVQSGAEVKKPGESLRISCKGSGYTFITYWIEWVRQMPGKGLEWMGDILPGSGSTNYNENFKGHVTISADKSISTAYLQWSSLKASDTAMYYCARSGYYGNSGFAYWGQGTLVTVSS VL: DIVMTQSPDSLAVSLGERATINCKSSQSLLSSGNQKNYLTWYQQKPGQPPKLLIYWASTRESGVPDRFSGSGSGTDFTLTISSLQAEDVAVYYCQNDYTYPLTFGQGTKLEIK	106	0.0199	0.0098		103	1.55	198	0.61	0.61	5.9e-05	97300	107
M19 (antibody, V domains shown, complete MAb; FR4 is its own entry; also called H16/L5) VH: QVQLVQSGAEVKKPGASVKVSCKASGYTFITYWIEWVRQAPGQGLEWMGDILPGSGSTNYNENFKGRVTMTRDTSTSTVYMELSSLRSEDTAVYYCARSGYYGNSGFAYWGQGTLVTVSS VL: DIVMTQTPLSLSVTPGQPASISCKSSQSLLSSGNQKNYLTWYLQKPGQPPQLLIYWASTRESGVPDRFSGSGSGTDFTLKISRVEAEDVGVYYCQNDYTYPLTFGQGTKLEIK	106	0.0296	0.00922		87.3	2.81	199	0.41	0.41	4.1e-05	98800	111
M1612 (antibody, V domains shown, complete MAb; FR4 is its own entry; also called H133/L3; TF7M1612) VH: EVQLVQSGAEVKKPGESLRISCKGSGYTFNPYWIEWVRQMPGKGLEWMGDILPGTGYTNYSPSFQGHVTISADKSISTAYLQWSSLKASDTAMYYCARSGYYGNSGFAYWGQGTLVTVSS VL: DIVMTQTPLSLPVTPGEPASISCKSSQSLLSSGNQKNYLTWYLQKPGQSPQLLIYWASTRESGVPDRFSGSGSGTDFTLKISRVEAEDVGVYYCQNDYTYPLTFGQGTKLEIK				0.413			163		0.38	6.3e-05	165000	
M1584 (antibody, V domains shown, complete MAb; FR4 is its own entry; also called H173/L3) VH: EVQLVQSGAEVKKPGESLRISCKGSGYTFVTYWIEWVRQMPGKGLEWMGDILPGTGYTVYSPSFQGHVTISADKSISTAYLQWSSLKASDTAMYYCARSGYYGNSGFAYWGQGTLVTVSS VL: DIVMTQTPLSLPVTPGEPASISCKSSQSLLSSGNQKNYLTWYLQKPGQSPQLLIYWASTRESGVPDRFSGSGSGTDFTLKISRVEAEDVGVYYCQNDYTYPLTFGQGTKLEIK				0.332			199		0.3	5.6e-05	184000	
M58 (antibody, V domains shown, complete MAb; FR4 is its own entry; also called H22/L2) VH: EVQLVQSGAEVKKPGESLRISCKGSGYTFITYWIEWVRQMPGKGLEWMGDILPGSGSTNYSPSFQGHVTISADKSISTAYLQWSSLKASDTAMYYCARSGYYGNSGFAYWGQGTLVTVSS VL: DIVMTQSPDSLAVSLGERATINCKSSQSLLSSGNQKNYLTWYQQKPGQPPKLLIYWASTRESGVPDRFSGSGSGTDFTLTISSLQAEDVAVYYCQNDYTYPLTFGQGTKLEIK	106	0.0198	0.00903		88.5	1.18	192	0.2	0.19	1.8e-05	94800	94
M1607 (antibody, V domains shown, complete MAb; FR4 is its own entry; also called H189/L3; TF7M1607) VH: EVQLVQSGAEVKKPGESLRISCKGSGFTFITYWIAWVRQMPGKGLEWMGDILPASSSTNYSPSFQGHVTISADKSISTAYLQWSSLKASDTAMYYCARSGYYGNSGFAYWGQGTLVTVSS VL: DIVMTQTPLSLPVTPGEPASISCKSSQSLLSSGNQKNYLTWYLQKPGQSPQLLIYWASTRESGVPDRFSGSGSGTDFTLKISRVEAEDVGVYYCQNDYTYPLTFGQGTKLEIK				0.395			152		0.35	6e-05	170000	
M1611 (antibody, V domains shown, complete MAb; FR4 is its own entry; also called H128/L3) VH: EVQLVQSGAEVKKPGESLRISCKGSGYTFGPYWIEWVRQMPGKGLEWMGDILPGSGYTTYSPSFQGHVTISADKSISTAYLQWSSLKASDTAMYYCARSGYYGNSGFAYWGQGTLVTVSS VL: DIVMTQTPLSLPVTPGEPASISCKSSQSLLSSGNQKNYLTWYLQKPGQSPQLLIYWASTRESGVPDRFSGSGSGTDFTLKISRVEAEDVGVYYCQNDYTYPLTFGQGTKLEIK				0.398			154		0.31	5.9e-05	192000	
M16 (antibody, V domains shown, complete MAb; FR4 is its own entry; also called H16/L2) VH: QVQLVQSGAEVKKPGASVKVSCKASGYTFITYWIEWVRQAPGQGLEWMGDILPGSGSTNYNENFKGRVTMTRDTSTSTVYMELSSLRSEDTAVYYCARSGYYGNSGFAYWGQGTLVTVSS VL: DIVMTQSPDSLAVSLGERATINCKSSQSLLSSGNQKNYLTWYQQKPGQPPKLLIYWASTRESGVPDRFSGSGSGTDFTLTISSLQAEDVAVYYCQNDYTYPLTFGQGTKLEIK	109	0.0234	0.00931		98.3	1.96	198	0.66	0.66	6.7e-05	102000	109
